Reference: the DeepSol protein solubility set

Assay: soluble on expression in E. coli; label from the status in PepcDB or PDB records
With “MGSDKIHHHHHHMTNIEVEINDNYICVYERLNDDCIRLLHMYGKNPVCVVPDMLDGMRVTELAEYCFSFKSMPEKLKTELGIDDILRPDMTELCDDYIERVILPDGMKKIGRLCFYNCSRLTMLELPSDICDVDGDAFMNCTKLYMLVMRGSPKDKSCLKQILSQISTLVRVRWADSDGNAIAQACFFEYDQTYDEIGPAHIFKLNMNGEGFRARQAFMDRVFVWKQYDEIFSEAIAQESEDDLLDMAFYRLIYAYELSKEARQQFLEYIVNHKKRLSELIIRKRDSGLLQSFLELKDGEENFIADVLAVTDMLALAAQDEWSEGSVILHRFKKENLSVSRKRRFEF” the “soluble on expression in E. coli” value was “not soluble”. For “MEKASSPEKWLAKVSVTLTKAKPDEIWPLFTDFFNLHKWLPTLATCHGVHGNNGEQGCIRFCSGFSIGSNGVDSAARWSKEKLVAVNPVERVMRYEIVESNTGFESYVSTVKILPRGEDGCVIEWSFTVDPVRGLSLENLVKKYEKALEIITKNMEEDALRRRESSS”, the “soluble on expression in E. coli” value was “soluble”. In the case of “MKQFKIRSVLQSIALLVLAGTAAAEPKPEKITHGRFEQIPVLRPDGEPQRVVIWFSDAGHVDQRTRQAEILRQDGAMVALVDTTHLYKVLAADSNHCTFSVGDVENLSRYLQAYYRDKTYRLPLLVGDGDGSGLVYAVAAQATENILAGVVSDGLCPVVVPTQAVCGAGVASDQHLKPAPVAAPLLVMTVSSAHCPAQLTSGFVRKVALGREIRLAASADLLPRLRAALRVLGAQKGVSLPPPPADLDGLPVVEVPSKAQKKSDTFAIFVSGDGGWAEIDKKVAGHLADADIPVVGLDSLRYFWSERTPEGFAKDLDRIARFYAHHWKRNRLLLVGFSQGADVLPAAINKLSPNTRQIIRMTALLSLGKYAHYEFHVSNWISTDDEGIPIAPDMVKLRSTRTVCIYGVDDQETLCPSLPQQNRRVALPGTHHFNGDYETVAKTILAQMEAAPLEHHHHHH”, the “soluble on expression in E. coli” value is reported as “not soluble”. With “MGSDKIHHHHHHMLMKGVTLRGLEVFEALAKSGSVAQAADITGLSQPAVSQQLRNLEKALGSDLVDHGRRPMVLTSAGRSFLSRTQAILSELRLAQSELTVMDLSHLPALSIGLIDDFDNDLTPRLATILADSLTQCRFKMVTASSHDIHRAMAEKDLHIGVAASTGELRTGVTEYPLVEEPFILVAPRGCITDPDDVGNQLNHLPLLRYARDQLISQQIESHLSRNKMEFDDRFEIGSHLALMAMVARRIGWAITTPLGYMRAVRFHEDIDAYALPFAGFSRRISLFAQSDWPDTVPLEVAGTVRRLTQSQMITPAINRLPWLAGQLRVIEE” the “soluble on expression in E. coli” value was “not soluble”. In the case of “MTLSKQLKTYITERFKLNYQDTWSCETVDAVAEDVLPEKYIKNSPLEHKILNTFTYYNDELHEISIYPFLCYLDKELIAIGYLDNFDLDFIFLNDTHQIIIDERYLLQKGGELEHHHHHH”, the “soluble on expression in E. coli” value is reported as “not soluble”. With “MLIMNIRKIDDYTYEIPREGDMIVHGIVYSTDKLFKNTVEDGSLNQVVNVAKLPGIVEASYAMPDIHLGYGFPIGGVAAFDYDEGIISPGGVGYDINCGVALLRTGMNYAQIKPRIKDITDYIFQEVPSGLTSRKGFPVNQNDLQEILTSGLKWAVSRGLATELDMINTEDNGSIESHGTHVSKQAMQRGLSQIGTLGAGNHFLEIQRVSDIFDEDVARKFGLYKDEVTVMIHTGSRGLGHQVATDYLRELRESRESIKTSDPELISIHVKSKIGENYLDAMKSAANFAFVNRQMAIYGVRKVFKKFFDVEPELVYSLAHNIAKVEDHIVEGKTKSLIVHRKGATRAFGPGKSSPPFEDTGHPVLIPGSMGTASYVLVGVKENLIKSFGTACHGSGRVLSRNQAIKKFSSIVDRELEEKDVYARPATKRVLYEEAPGSYKNVDEVVAAVEGAHLARSIVRMVPLAVVKGLEHHHHHH” the “soluble on expression in E. coli” value was “not soluble”. In the case of “EDYEKVPLPNSVFVNTTESCEVERLFKATSPRGEPQDGLYCIRNSSTKSGKVLVVWDETSNKVRNYRIFEKDSKFYLEGEVLFVSVGSMVEHYHTHVLPSHQSLLLRHPYGYT”, the “soluble on expression in E. coli” value is reported as “soluble”. With “MGSDKIHHHHHHEEQKVCHMDDECVEVGQWQLGLALGYGERSNPVRDYDDIPIYLAPTLAYYGDRWFFDNGNLGYTLADEELFSVNLTTSFSSDSAYFYRWDPSNIFISGTSQLSSTPSAFTSRFQAFGAEPEPVFNELEDRKFTLLGGAEAFIYTPMGIINLALAHDLFDVHSGMEAKVKWLYNLSWTDWKFEFAAVANWKSEEIINYYYGVRPSENTYWSERYRAGSGTNLGLELTTQYIMSEHWELLFLVRYTDLADEITASPLVTESYTNTYFIGTAYRF” the “soluble on expression in E. coli” value was “not soluble”. For “SSEVLDGFDKVDKSLASSIDGSDKRNNLVLSELNTAYRTNPEKVKVWYERSLVLQKEADSLCTFIDDLKLAIARESDGKDAKVNDIRRKDNLDASSVIMLNPINGKGSTLRKEVDKFRELVATLMTDKAKLKLIEQALNTESGTKGKSWESSLFENMPTVAAITLLTKLQSDVRYAQGEVLADLVKSVDVGDYRVNSITAQVIPQSQIVMSGDTYKANIVLSSVDTTQRPDVFVNGKLLSPENMGLFTATAGAPGTYPVKGYIEMMGNDGVKIRRDFESEYFVTE”, the “soluble on expression in E. coli” value was “not soluble”. In the case of “GPGSMHSMVRVGLTNGMVLTGRIVEFDAVTMNMKLDAITDMAVLHPAAGEGCGDSAYETNPAALRCCNSVVVRGCHLRYMDFIDEESDNGRGLQELITAVRVVKPSVPQD”, the “soluble on expression in E. coli” value is reported as “not soluble”. In the case of “MLLAYQSVIASITYLNPNIRFQLSRRCPSLKSAEKSAPLFINKLKLCTNSVVVNDISYEVDVYKTSEAVLLTYNTDLDVFGSIDFDLEIEEQNEILLDHRTYMAERMRLEREVLGLMTHSRNPNADLSRLMEINRLNKIRIQAREDRREVPNTPPEPPLVQVIEFAVMETDNYGDCLENEQLTYDRKLHDAVKYIMEKLFCGRKTPVHLSTLSINSFGILRIPLNMRFKIRHLKLVSGHANEIASKIRPIIEDSSFPLKSIIIKDPVEFDDPIYHSTQLLVLRHQLENRSPRFLNVKVLPNQLYVTTKILNWVQQARPVGTCWEFVGIDKNSKRQCVQKLMQIPGAMRALHTKLCWIILPANDDSEIHVTVAQDKINSKQFSIKLTVY”, the “soluble on expression in E. coli” value is reported as “not soluble”. In the case of “GTTDAQGFATVEIKQSQGVGLSTPLNIVPVNSYIPNTVNYNVIFTTLTSPDAVGAQMWGHMDETITVDALTFARPRLAAEVFSPDGTLTENNEVWSRVSQANASSTSKGGCGANMLPRRSQLSALYDANNGNGVQTVHGWPTQRQPYWSSSPADQVPHYYTIALNDGARTVGGSTAVYVSCLTTANNP”, the “soluble on expression in E. coli” value is reported as “not soluble”. For “MSQVTEQSVRFQTALASIKLIQASAVLDLTEDDFDFLTSNKVWIATDRSRARRCVEACVYGTLDFVGYPRFPAPVEFIAAVIAYYVHPVNIQTACLIMEGAEFTENIINGVERPVKAAELFAFTLRVRAGNTDVLTDAEENVRQKLRAEGVM”, the “soluble on expression in E. coli” value was “soluble”. With “KKTEWSREEEEKLLHLAKLMPTQWRTIAPIIGRTAAQCLEHYEFLLDKAAQRD” the “soluble on expression in E. coli” value was “soluble”. In the case of “MGSDKIHHHHHHMEIGIIGTGNIGGTLARKLIAAGHQVRVANSKGIHGVQSFADEIGATAVDVYGAVKGADAIILSIPLPALASLPNGFFDDLPETVPLIDTSNYYPGLRDPLIPEIDDGMTESVWVSQQLSHPVIKAFNNILAWSLAELGTPKGSASRLAIAVAGDNATLKQIVMNLVDDTGFDAIDAGSLEESWRQQPSTPAYCCDYDAETMKKGLTAAVRGEAASKRDRLPELFGKLGANPTHEDIVAMNRSLNP”, the “soluble on expression in E. coli” value is reported as “not soluble”. With “MGSDKIHHHHHHMKTNLLNYDLQGLTRHFADMGEKPFRAKQVMRWMHQSGAQNFNEMTDLAKSLRHKLNEQAGIEIPKLMMSQKSSDGTRKWLLDVGTGNGVETVFIPESDRGTLCISSQVGCALECTFCSTGRQGFNRNLTAAEIIGQLWWANKAMGVTPKNERVISNVVMMGMGEPMANFDNVVTALSIMLDDHGYGLSRRRVTVSTSGMVPQMDRLRDVMPVALAVSLHASNDEVRNQIVPLNKKYPLKELMAACQRYLVKAPRDFITFEYVMLDGINDKAQHARELIELVTDVPCKFNLIPFNPFPNSGYERSSNENIRVFRDILQQAGFVVTVRKTRGDDIDAACGQLAGQVQDKTRRQQKWQQILIGQQG” the “soluble on expression in E. coli” value was “not soluble”. For “MAPATQRNRETIAAVLQEYLPSQGSILEIASGTGEHACFFAPLFSPRWWITSDPDPLCRESIMAWRDHQALANFQSPLDLDVNDQVWPVEREILREPVTSIVAINLIHISPWESCLGLLTGAERILPEGGILYLYGPYRQKGVPTAPSNEAFDQSLQSRNPAWGLRQLEDVIGEAGKRNLHNQAIIPMPANNLSVIFQKGLEHHHHHH”, the “soluble on expression in E. coli” value was “soluble”. With “MSLNNQANKLRNLMSQNGTKKSQNTHFIAITSGKGGVGKSTISANLANVLANNGYKVGLFDADIGLANLDVILNVRIQKNLLHVLRGECSLEDILIEVKPNLWLIPGESGDEILKYNDKNIYERFLNQASILDELDFLIIDTGAGIGGNILNFLEMADEVIVVTVPDPAAITDAYATIKTTSKTKENLLMLFNVVKNENEALKVFENIKKVADANIKNPLNLEFLGHLSASKDVSGSIKKRTLFSDENTASSDEIKALASKLLYRLERKVLDNVSNRSFSSFFRKIIEREGHHHHHH” the “soluble on expression in E. coli” value was “soluble”. For “GKNTPKSAIIYTTMGDIHISLFYKECKKTVQNFSVHSINGYYNNCIFHRVIKHFMVQTGDPSGDGTGGESIWGNEFEDEFFDHLNHSKPFMVSMANCGPNTNGSQFFITTVPCPWLDFKHTVFGKVTQGSKIVLDIEKVRTDKRDKPLEDIKILNIKINN”, the “soluble on expression in E. coli” value was “soluble”. With “MEGSEEHSTDGEISSSEEEDEDPTPAHAIPARPSSVVITPTSASFVIPRKKWDLQDKTVTLHRSPLCRDEDEKEETGNSSYTRGHKRRRGEVHGCTDESYGKRRHLPPGARAPRAPRAPRVPRAPRSPRAPRSNRATRGPRSESRGAGRSTRKQARQERSQRPLPNKPWFDMSLVKPVSKITFVTLPSPLASLTLEPIQDPFLQSMLAVAAHPEIGAWQKVQPRHELRRSYKTLREFFTKSTNKDTWLDARMQAIQNAGLCTLVAMLEETIFWLQEITYHGDLPLAPAEDILLACAMSLSKVILTKLKELAPCFLPNTRDYNFVKQLFYITCATARQNKVVETLSSSYVKQPLCLLAAYAAVAPAYINANCRRRHDEVEFLGHYIKNYNPGTLSSLLTEAVETHTRDCRSASCSRLVRAILSPGTGSLGLFFVPGLNQ” the “soluble on expression in E. coli” value was “soluble”. In the case of “HDVIFHIRAKGKNQKLLLSAHPSYSRVHITAQAYENPSEPPMFCMLLRKHIEGGFIEKIEQAGLDRIMIFHIKSRNEIGDETVRKLYVEIMGRHSNIILTDAAENVIIDGLKHLSPSMNSYRTVLPGQDYKLPPAQDKISPLEASEDDILRHLSFQEGRLDKQIVDHFSGVSPLFAKEAVHRAGLANKVTLPKALLALFAEVKEHRFIPNITTVNGKEYFYLLELTHLKGEARRFDSLSELLDRFYFGKAERDRVKQQAQDLERFVVNERKKNANKIKKLEKTLEYSENAKEFQLYGELLTANLYMLKKGD”, the “soluble on expression in E. coli” value is reported as “not soluble”. With “MSLTWKHYLSAWQNADLSNEWRRELQRVEEEQERFDGYLTFGTGGMRGKMGIGTKRINLFTIRRVAKGLGDYVVANEGAEMGVAIAFDSRHHSGAFAQETAKVLAAQGINVYLSDSIRPTPALSFCVREKGAFAGVVITASHNPSIYNGFKVYDKNGCQITLGVAQEIAGYLEKITDIFTIPVRELPNPLVTPLGKEMDDAYLNALTAVVSRPDLLADYGNELRICYTPLHGAGKELVMRGLLENGFSETTIIAEQSEPDGDFPTVISPNPEEENSFDLAKKLAKEIQADIILATDPDADRLGVAVLNKQATYQILTGNQLGALLLNYILEAKTPVTGADTMINTIVTGDLGGKIAYDFGINHIQTLTGFKFIGEKIAEMEGTEKNFLFGYEESYGYLIAPFVRDKDAVQAALLTAEMALFYKKEGTTLLGKLTNLFEKFGYHKEYLHTITLDDSDGITKMIQVIDALRKEPIFMPEITVVEDFLTSKRTNFVTMEVTNIELPKENVLKFYLMDSSWFAIRPSGTEPKCKIYFQTSGETEEIATKAMNELRKRVLAVWDEGHHHHHH” the “soluble on expression in E. coli” value was “soluble”.
